US20190048062A1 (BRACCO SUISSE, published 2019)

Tests used:
Assay in all cases: flow chamber, microvesicles on selectin-Fc coating
[1] = target: T1, mouse Fc P-Selectin (catalog number 737-PS, R&D Systems) (mouse, UniProt Q01102 42-709)
T1 construct: Bought; coated in the flow chamber at 4 µg/mL; also called Mouse P selectin; mouse P-selectin; Fc part of the bought chimera not given
T1 sequence (looked up): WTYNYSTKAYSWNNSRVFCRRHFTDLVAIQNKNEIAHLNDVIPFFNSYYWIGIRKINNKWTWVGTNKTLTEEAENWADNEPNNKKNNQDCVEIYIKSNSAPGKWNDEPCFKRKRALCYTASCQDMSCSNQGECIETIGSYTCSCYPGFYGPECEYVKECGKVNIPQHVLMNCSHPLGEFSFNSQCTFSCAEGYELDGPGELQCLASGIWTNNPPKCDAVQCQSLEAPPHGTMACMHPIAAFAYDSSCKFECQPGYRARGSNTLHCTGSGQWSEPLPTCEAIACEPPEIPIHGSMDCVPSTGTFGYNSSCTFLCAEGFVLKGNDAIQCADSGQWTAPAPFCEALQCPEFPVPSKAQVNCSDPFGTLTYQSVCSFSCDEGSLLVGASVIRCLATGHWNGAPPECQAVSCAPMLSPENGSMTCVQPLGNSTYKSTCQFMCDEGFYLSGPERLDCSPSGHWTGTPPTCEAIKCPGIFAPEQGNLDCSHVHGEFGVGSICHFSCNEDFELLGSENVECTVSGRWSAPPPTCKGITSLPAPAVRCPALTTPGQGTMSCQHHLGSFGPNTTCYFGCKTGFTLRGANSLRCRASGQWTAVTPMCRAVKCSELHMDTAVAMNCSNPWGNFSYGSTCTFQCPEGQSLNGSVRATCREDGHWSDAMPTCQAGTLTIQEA
Procedure: (§1) To test the effective binding, targeted microvesicles prepared as described in WO2012/020030 (Example 6) and those prepared according to the present invention (example 8) were injected in a flow chamber set up comprising a coating of mouse Fc P-Selectin (catalog number 737-PS, R&D Systems, Minneapolis, Minn., USA) or human Fc P and E selectins (R&D catalog numbers 137-PS 50 and 724 ES 100) at 4 μg/mL. Microvesicles (at equivalent number of 80×10⁶/400 μL TBS++) were injected through the flow chamber (FCS2, Bioptech, USA) in a bolus fashion and their adhesion onto the mouse P-selectin (or human P- or E-selectin) coating layer assessed over a period of 10 min at a flow rate of 1.0 mL/min (shear rate of 714 s⁻¹) in the presence of 50% (v:v) human plasma (Stehelin & Cie A G) in TBS. A quantitative analysis of microvesicles accumulation was performed by counting the number of microvesicles adhering in the observed area at 2 min intervals over the total 10 min infusion, using the image processing program Analysis FIVE (SIS, Germany). After 10 min, five pictures were taken randomly and the number of bound microvesicles was measured and expressed as the number of bound bubbles (NBB) at 10 min. Each observed area was 183×137 μm, as measured with the aid of a stage micrometer. Measurement was performed between the middle and the exit of the chamber.
(§2) Similarly, suspensions of targeted microvesicles prepared according to example 8 (Variant 1A as targeting ligand) was injected in a flow chamber as described above, and their binding activity determined according to the above procedure.

[2] = target: T2, human Fc P selectin (R&D catalog number 137-PS 50) (human, UniProt P16109 42-771)
T2 construct: Bought; coated in the flow chamber at 4 µg/mL; also called Human P selectin; human P-selectin; Fc part of the bought chimera not given
T2 sequence (looked up): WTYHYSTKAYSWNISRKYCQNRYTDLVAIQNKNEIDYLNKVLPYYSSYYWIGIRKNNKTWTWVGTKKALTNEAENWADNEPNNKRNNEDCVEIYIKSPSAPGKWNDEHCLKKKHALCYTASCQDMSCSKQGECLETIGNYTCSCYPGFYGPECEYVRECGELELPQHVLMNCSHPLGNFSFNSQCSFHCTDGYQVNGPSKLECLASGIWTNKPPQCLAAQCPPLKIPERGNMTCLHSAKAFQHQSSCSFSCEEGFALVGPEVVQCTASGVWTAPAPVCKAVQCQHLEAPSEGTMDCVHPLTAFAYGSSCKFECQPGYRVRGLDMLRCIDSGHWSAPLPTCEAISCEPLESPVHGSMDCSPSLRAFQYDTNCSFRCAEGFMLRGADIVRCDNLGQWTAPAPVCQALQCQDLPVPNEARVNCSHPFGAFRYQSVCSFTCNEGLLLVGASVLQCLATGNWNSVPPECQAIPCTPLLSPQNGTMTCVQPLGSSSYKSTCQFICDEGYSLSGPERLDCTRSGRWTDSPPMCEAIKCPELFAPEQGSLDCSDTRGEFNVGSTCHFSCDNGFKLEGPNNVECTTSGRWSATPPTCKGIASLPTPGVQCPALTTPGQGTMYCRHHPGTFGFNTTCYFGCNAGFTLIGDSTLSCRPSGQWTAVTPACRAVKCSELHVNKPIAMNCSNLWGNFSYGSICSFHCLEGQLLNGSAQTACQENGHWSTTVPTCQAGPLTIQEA
Procedure: as §1, §2

[3] = target: T3, human Fc E selectin (R&D catalog number 724 ES 100) (human, UniProt P16581 22-556)
T3 construct: Bought; coated in the flow chamber at 4 µg/mL; also called Human E selectin; human E-selectin; Fc part of the bought chimera not given
T3 sequence (looked up): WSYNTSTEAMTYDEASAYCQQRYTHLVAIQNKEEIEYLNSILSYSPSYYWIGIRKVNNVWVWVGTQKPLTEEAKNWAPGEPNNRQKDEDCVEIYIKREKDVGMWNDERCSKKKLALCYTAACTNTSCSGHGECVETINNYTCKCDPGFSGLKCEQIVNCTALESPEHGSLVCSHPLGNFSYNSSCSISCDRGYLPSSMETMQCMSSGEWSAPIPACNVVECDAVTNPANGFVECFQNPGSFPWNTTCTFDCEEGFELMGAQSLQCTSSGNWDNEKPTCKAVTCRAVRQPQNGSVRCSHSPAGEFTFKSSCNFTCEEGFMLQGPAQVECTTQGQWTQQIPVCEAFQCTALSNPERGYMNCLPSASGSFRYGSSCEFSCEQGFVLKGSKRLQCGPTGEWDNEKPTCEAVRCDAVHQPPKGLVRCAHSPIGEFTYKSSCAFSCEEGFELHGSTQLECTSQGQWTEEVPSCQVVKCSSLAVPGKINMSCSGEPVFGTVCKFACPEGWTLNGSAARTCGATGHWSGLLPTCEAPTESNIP
Procedure: as §1, §2

Measured: binding result

B1: microbubble Variant 1A (gas-filled microvesicles carrying the DSPE-PEG-SH/Variant 1A-SMCC conjugate) (other)
chain: QATEYEYLDYDFLPETEPPEMLRNSTDTTPLTGPGTPESTTVEPAARPHTCPPCPLQQRRGLEAERARLAAQLDALRAEVARLARERDLYGGGGAGGGGKG
modifications: as Variant 1A (pyroglutamate N-terminus, sulfated Tyr 5, 7, 10, O-glycan on Thr16); reacted with Sulfo-SMCC and linked to DSPE-PEG2000-SH, held in the phospholipid envelope of the microvesicle
notes: many copies of the ligand on each microvesicle, so the read-out is multivalent adhesion; also called MB-PSGL-1 Variant 1A; microvesicles with Variant 1A
binds: [1] | [2] | [3]
